From PMC11882963 (Nature Communications, 2024)

Legend:
[1] = target: T1, MntR Y22A (Bacillus subtilis, UniProt P54512 1-142, Y22A); assay: FSEC
T1 sequence: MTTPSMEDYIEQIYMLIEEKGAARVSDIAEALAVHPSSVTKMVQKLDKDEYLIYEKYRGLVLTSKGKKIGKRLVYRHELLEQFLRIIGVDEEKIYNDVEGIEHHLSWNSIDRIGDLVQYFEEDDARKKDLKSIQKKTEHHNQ

[2] = target: T2, MntR WT (Bacillus subtilis, UniProt P54512 1-142); assay: FSEC
T2 sequence: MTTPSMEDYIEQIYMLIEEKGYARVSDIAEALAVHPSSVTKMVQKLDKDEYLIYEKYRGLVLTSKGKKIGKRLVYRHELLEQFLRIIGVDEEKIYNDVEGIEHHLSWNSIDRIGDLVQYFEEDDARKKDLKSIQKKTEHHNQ

[3] = target: T3, MntR D27A (Bacillus subtilis, UniProt P54512 1-142, D27A); assay: FSEC
T3 sequence: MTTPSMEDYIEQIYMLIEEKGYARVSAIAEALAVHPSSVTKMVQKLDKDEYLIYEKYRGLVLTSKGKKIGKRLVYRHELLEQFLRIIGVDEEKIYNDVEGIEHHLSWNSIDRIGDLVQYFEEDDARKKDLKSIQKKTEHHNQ

[4] = target: T2, MntR WT; assay: mass photometry
[5] = target: T3, MntR D27A; assay: mass photometry
[6] = target: T1, MntR Y22A; assay: mass photometry
[7] = target: T2, MntR WT; assay: FSEC; remark: listed apart in the source
[8] = target: T3, MntR D27A; assay: mass photometry; remark: listed apart in the source
[9] = target: T2, MntR WT; assay: cryo-EM
[10] = target: the molecule itself; assay: mass photometry

B1: P26 (mneP site 1) (dsDNA)
DNA 1: CAACGTTGCTATAGACCCACTCGAAA
DNA 2: TTTCGAGTGGGTCTATAGCAACGTTG
[1]
  binding result: no binding
[2]
  binding result: no binding
[3]
  binding result: no binding

B2: C84 (four consensus MntR sites) (dsDNA)
DNA 1: CCTTTTTTGCCTTAAGGAAACTTTTTTGCCTTAAGGAAACTTATTTGCCTTAAGGAAACTACTTTGCCTTAAGGAAACTCGAAG
DNA 2: CTTCGAGTTTCCTTAAGGCAAAGTAGTTTCCTTAAGGCAAATAAGTTTCCTTAAGGCAAAAAAGTTTCCTTAAGGCAAAAAAGG
[4]
  binding result: binds
[5]
  binding result: binds
[6]
  binding result: binds

B3: H26 (mntH operator) (dsDNA)
DNA 1: GATAATTTGCCTTAAGGAAACTCTTC
DNA 2: GAAGAGTTTCCTTAAGGCAAATTATC
[1]
  binding result: binds
[3]
  binding result: binds
[7]
  binding result: binds

B4: P84 (mneP regulatory region) (dsDNA)
DNA 1: CCTTTTTAGCATAGCTCCAACTTTTTTTCTGTCACCTTATTTATTAGTAAACAGGAAACAACGTTGCTATAGACCCACTCGAAG
DNA 2: CTTCGAGTGGGTCTATAGCAACGTTGTTTCCTGTTTACTAATAAATAAGGTGACAGAAAAAAAGTTGGAGCTATGCTAAAAAGG
[8]
  binding result: binds
[9]
  binding result: binds

B5: Bacillus subtilis MntR, wild type (natural protein)
chain: MTTPSMEDYIEQIYMLIEEKGYARVSDIAEALAVHPSSVTKMVQKLDKDEYLIYEKYRGLVLTSKGKKIGKRLVYRHELLEQFLRIIGVDEEKIYNDVEGIEHHLSWNSIDRIGDLVQYFEEDDARKKDLKSIQKKTEHHNQ
[10]
  stoichiometry N: 2
